# Test results: US20190336589A1, “IMMUNIZING PEPTIDE, METHOD FOR PRODUCING IMMUNIZING PEPTIDE, PHARMACEUTICAL COMPOSITION FOR IMMUNE DISEASE CONTAINING SAME, AND METHOD FOR TREATING IMMUNE DISEASE” (OSAKA UNIVERSITY, priority 2015, published 2019)
# Assays:
# [1] = target: T1, complex of HEL peptide and MHC class II molecule (I-A^k) on 293 T cells (Mus musculus, UniProt P01910+P06343); assay: Flow cytometry of serum IgG from HEL protein-immunized mice binding to 293 T cells expressing I-A^k pulsed with HEL peptides
# T1 construct: α-chain of mouse MHC class II molecule (I-A^k); β-chain of mouse MHC class II molecule (I-A^k); expressed in transfected cells; host or cells: 293T cells (pME18S vectors, co-transfected with pMX-GFP)
# Text: From mouse spleen cDNA, polynucleotides encoding the α-chain and the β-chain of a mouse MHC class II molecule (I-A^k) shown below were cloned into pME18S vectors, respectively. Thus, a mouse MHC class II molecule (I-A^k) α-chain expression vector (I-A^k a expression vector) and a mouse MHC class II molecule (I-A^k) β-chain expression vector (I-A^k β expression vector) were produced. As a GFP expression vector, pMX-GFP (obtained from the Division of Cellular Therapy in the Advanced Clinical Research Center of the Institute of Medical Science, the University of Tokyo) was used.
# 293T cells (obtained from RIKEN BioResource Center) were used as host cells to which the above-described expression vectors were to be introduced. First, the 293 T cells were seeded in a 24-well plate at a density of 2×10^5 cells/500 μl/well. Next, the expression vectors were introduced to the 293T cells using a PEI max solution obtained by dissolving a transfection 5 reagent (PEI max, Cosmo Bio Co., Ltd.) in purified water at a concentration of 2 mg/ml. Specifically, a mixture of 2 μl of the PEI max solution and 50 μl of a serum-free medium (OPTI-MEM®, GIBCO) was added to 50 μl of a serum-free medium containing 0.26 μg of the I-A^k c expression vector, 0.26 μg of the I-A^k f expression vector, and 0.26 μg of the GFP expression vector. Then, they were mixed together, whereby a transfection reagent was prepared. Thereafter, the transfection reagent was added to each well to introduce the expression vectors to the 293 T cells. After the introduction, the 293 T cells were cultured in a DMEM medium at 37° C. for 12 hours. Next, each of HEL peptides shown in Table 3 below was added to the wells at a concentration of 20 μmol/l. The 293 T cells were cultured for another 24 hours under the above-described culture conditions, whereby the 293 T cells were pulsed with the HEL peptide. The cultured 293 T cells were collected from the wells. Thereafter, the collected 293 T cells were used in antibody detection to be described below. The HEL peptides used in the present example and the following examples were obtained from SCRUM Inc., Eurofins Genomics K.K., or GenScript. In the HEL protein, a T-cell epitope presented by the MHC class II molecule I-A^k is a peptide consisting of the amino acid sequence of SEQ ID NO: 1 (DGSTDYGILQINSR). Thus, among the HEL peptides shown in Table 3 below, HEL peptide 41-70 corresponds to the immunizing peptide.
# 100 μg of a HEL protein (Sigma) was mixed with a complete Freund's adjuvant (CFA, Sigma), and the resultant mixture was administered subcutaneously to mice (B10.A strain). Two weeks after the administration, whole blood was collected from each mouse, and serum was collected from the whole blood.
# The serum collected from each of the HEL protein-immunized mice was diluted 100-fold with a HANKS' BALANCED SALT SOLUTION (HBSS, Sigma) to obtain a diluted serum. Next, 10 μl of the diluted serum was added to the 293 T cells obtained in the above item (1) to cause a reaction. The 293 T cells after the reaction were washed, and then stained with an APC-labeled anti-mouse IgG (H+L) antibody (code-number: 715-136-150, Jackson ImmunoResearch). Thereafter, the stained 293 T cells were analyzed by flow cytometry (FACSCalibur™, Becton Dickinson) (peptide non-added groups). As peptide added groups, the HEL peptides shown in Table 3 above were added to the diluted serums, respectively, at a concentration of 40 μmol/l. Then, the diluted serums containing the respective HEL peptides were added to the 293 T cells pulsed with the corresponding HEL peptides to cause a reaction. Except for the above, the peptide added groups were analyzed by the flow cytometry analysis in the same manner.
# Peptide non-added groups were analyzed by flow cytometry in the same manner as in the above item (3), except that, instead of the HEL peptides shown in Table 3 above, the HEL peptide 41-70, the HEL peptide 48-61, and HEL peptides shown in Table 4 below were used. […]
# [2] = target: T2, 3A9 TCR / complex of HEL antigen and I-A^k on LK35.2 cells (Mus musculus, UniProt P01910+P06343); assay: Immunization of mice with HEL protein or HEL peptides; serum inhibition of soluble single-chain 3A9 TCR binding to HEL protein-pulsed LK35.2 cells; assay type: in vivo, mice (B10.A strain); conditions: immunogen with CFA subcutaneously; serum two weeks after administration
# T2 construct: LK35.2 cells expressing I-A^k (the MHC class II molecule); endogenous in cells; host or cells: LK35.2 cells (I-A^k); the 3A9 scTCR-Fc is culture supernatant of transfected 293T cells
# Protocol: 30 nmol of the HEL peptide 41-70 or the HEL peptide 48-61 was mixed with a complete Freund's adjuvant. Each of the thus-obtained mixture was administered subcutaneously to mice (B10.A strain). Two weeks after the administration, whole blood was collected from each mouse, and serum was collected from the whole blood.
# LK35.2 cells were pulsed with the HEL protein in the same manner as in the item (2) in Example 1B, except that the HEL protein was added instead of the HEL protein, the HEL peptide 41-70, and the HEL peptide 48-61. The cultured LK35.2 cells were collected from the wells. Thereafter, the collected LK35.2 cells were used in inhibition of TCR recognition by an antibody to be described below.
# Flow cytometry analysis was performed in the same manner as in the item (3) in Example 1B, except that serums of the HEL peptide 41-70-immunized mice or serums of the HEL peptide 48-61-immunized mice were used in addition to the serums of the HEL protein-immunized mice and that the LK35.2 cells obtained in the item (1) in Example 2B were used instead of the LK35.2 cells obtained in the item (2) in Example 1B. As Control 1, the flow cytometry analysis was performed in the same manner, except that serums collected from non-immunized mice were used instead of the serums of the HEL protein-immunized mice, the serums of the HEL peptide 41-70-immunized mice, and the serums of the HEL peptide 48-61-immunized mice. As Control 2, the flow cytometry analysis was performed in the same manner, except that the HEL protein was not added.
# 30 nmol of the HEL peptide 48-77 (Y53A L56A) was mixed with a complete Freund's adjuvant, and the resultant mixture was administered subcutaneously to mice (B10.A strain). Two weeks after the administration, whole blood was collected from each mouse, and serum was collected from the whole blood.
# Flow cytometry analysis was performed in the same manner as in the item (3) in Example 1B, except that serums of the HEL peptide 48-77 (Y53A L56A)-immunized mice were used in addition to the serums of the HEL protein-immunized mice and that the LK35.2 cells obtained in the item (2) in Example 4 were used instead of the LK35.2 cells obtained in the item (2) in Example 1B. As controls, the flow cytometry analysis was performed in the same manner, except that serums collected from non-immunized mice were used instead of the serums of the HEL protein-immunized mice and the serums of the HEL peptide 48-77 (Y53A L56A)-immunized mice.
# [3] = peptide added groups: same HEL peptide added to diluted serum at 40 μmol/l, serum of HEL protein-immunized mice
# [4] = peptide non-added groups, serum of HEL protein-immunized mice diluted 100-fold, I-A^k 293 T cells pulsed with 20 μmol/l peptide
# T1 sequence (P01910 24-256): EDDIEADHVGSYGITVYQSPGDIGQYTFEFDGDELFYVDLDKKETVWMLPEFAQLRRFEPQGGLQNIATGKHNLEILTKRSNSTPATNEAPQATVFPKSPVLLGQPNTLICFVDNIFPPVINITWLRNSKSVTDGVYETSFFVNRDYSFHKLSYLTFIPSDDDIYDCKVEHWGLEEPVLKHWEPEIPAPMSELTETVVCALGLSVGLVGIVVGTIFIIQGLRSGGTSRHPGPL
# T1 sequence (P06343 28-263): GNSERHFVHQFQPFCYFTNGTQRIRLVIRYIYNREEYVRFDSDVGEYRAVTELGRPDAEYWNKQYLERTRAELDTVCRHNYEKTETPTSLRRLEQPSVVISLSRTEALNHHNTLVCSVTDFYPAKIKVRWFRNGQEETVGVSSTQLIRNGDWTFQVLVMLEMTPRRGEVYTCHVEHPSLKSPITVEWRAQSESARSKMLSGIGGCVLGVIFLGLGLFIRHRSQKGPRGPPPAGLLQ
# T2 sequence (P01910 24-256): as the sequence (P01910 24-256) above
# T2 sequence (P06343 28-263): as the sequence (P06343 28-263) above
Sequence,"serum IgG binding to 293 T cells pulsed with the HEL peptide [1, 3]","serum IgG binding to 293 T cells pulsed with the HEL peptide [1, 4]",binding of soluble single-chain TCR to LK35.2 cells pulsed with HEL protein after reaction with serums of mice immunized with the substance [2]
"DGSTDYGILQINSR (Gallus gallus domesticus) [HEL peptide 48-61, reference compound]",not observed,not observed,observed
QATNRNTDGSTDYGILQINSRWWCNDGRTP (Gallus gallus domesticus) [HEL peptide 41-70],observed,observed,not observed
